In patent US6642007 (Pfizer, dated 2003):
Substitutions are numbered along the chain they refer to. No end group written: not given here. *: point of attachment. Biotin = O=C1N[C@H]2[C@H](CS[C@H]2CCCCC(=O)*)N1

T1: biotinylated peptide 225 (SEQ ID NO: 64) (biotinylated (position not given))
T1 construct: Collagen-related peptide fragment on streptavidin magnetic beads
T1 peptide: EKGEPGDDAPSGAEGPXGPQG

T2: biotinylated peptide Bt-AEGPPGPQG (SEQ ID NO: 14)
T2 construct: also called biotinylated peptide 040; peptide 040
T2 peptide: Biotin-AEGPPGPQG

T3: biotinylated peptide of SEQ ID NO: 19
T3 construct: Captured on a streptavidin biosensor chip; also called biotinylated peptide 054
T3 peptide: Biotin-GEPGDDGPS

B1: monoclonal antibody 5109 (antibody, V domains shown)
VH: EVQLVESGGGSVQPGGSLKLSCAASGFTFNTYGMSWVRQTPDKRLEWVATINSNGGLTFYADSVKGRFTISRDNAKNTLYLQMNRLKSGDSGMYYCVRGYSNYARWGQGALVTVSA
VL: DVVMTQTPLTLSVTIGQSASISCKSSQSLLGSDGLTYLIWLLQRPGQSPKRLIFLVSELDSGVPDRFTGSGSGTDFTLKISRVEAEDLGVYYCCQGTHFPHTFGAGTKLELK
B2: 9A4 scFv (VH-linker-VL-HIS-MYC tags) from p9A4ICAT7-1 (scFv)
scFv: QIQLVQSGPELKKPGETVKISCKASGYTFTDYSIHWVKQAPGKGLKWMGWINTETGEPTYADDFKGRFAFSLETSASTAYLQINNLKNEDTATYFCARGGSLDYWGQGTTLTVSSGGGGSGGGGSGGGGSQIVLTQSPVFMSASPGEKVTMTCSASSSVSYMYWYQQKPGSSPRLLIHATSNLASGVPVRFSGGGSGTSYSLTISRMEAEDAATYYCQQWRSYTRTFGGGTKLEIIAAAHHHHHHGAAEQKLISEEDLNGAA
notes: Monomer purified from E. coli TG1; also called 9A4ICAT7-1 scFv; p9A4lCAT7-1
B3: monoclonal antibody 9A4 (antibody, V domains shown)
VH: QIQLVQSGPELKKPGETVKISCKASGYTFTDYSIHWVKQAPGKGLKWMGWINTETGEPTYADDFKGRFAFSLETSASTAYLQINNLKNEDTATYFCARGGSLDYWGQGTTLTVSS
VL: QIVLTQSPVFMSASPGEKVTMTCSASSSVSYMYWYQQKPGSSPRLLIHATSNLASGVPVRFSGGGSGTSYSLTISRMEAEDAATYYCQQWRSYTRTFGGGTKLEIIR
notes: also called mAb 9A4; 9A4 IgG
B4: 9A4 scFv (VL-linker-VH-FLAG tag) from p9A4IF-5 (scFv)
scFv: QIVLTQSPVFMSASPGEKVTMTCSASSSVSYMYWYQQKPGSSPRLLIHATSNLASGVPVRFSGGGSGTSYSLTISRMEAEDAATYYCQQWRSYTRTFGGGTKLEIILSADDAKKDAAKKDDAKKDDAKKDLEIQLVQSGPELKKPGETVKISCKASGYTFTDYSIHWVKQAPGKGLKWMGWINTETGEPTYADDFKGRFAFSLETSASTAYLQINNLKNEDTATYFCARGGSLDYWGQGTTLTVSSASDYKDDDDK
notes: Monomer purified from E. coli; also called 9A4IF-5 scFv; p9A4lF-5
B5: 9A4 scFv CDR3 VH mutant clone 14B (scFv)
scFv: B2 scFv with Y104H
notes: Derived from p9A4ICAT7-1
B6: 9A4 scFv CDR3 VH mutant clone 5C (scFv)
scFv: B2 scFv with Y104S
notes: Derived from p9A4ICAT7-1
B7: 9A4 scFv CDR3 VH mutant clone 20B (scFv)
scFv: B2 scFv with A97G, S101N, Y104H, W105C
notes: Derived from p9A4ICAT7-1
B8: 9A4 scFv CDR3 VH mutant clone 15A (scFv)
scFv: B2 scFv with S101R
notes: Derived from p9A4ICAT7-1
B9: 9A4 scFv CDR3 VH mutant clone 18E (scFv)
scFv: B2 scFv with Y104V
notes: Derived from p9A4ICAT7-1
B10: 9A4 scFv CDR3 VH mutant clone 10C (scFv)
scFv: B2 scFv with A97G, W105C
notes: Derived from p9A4ICAT7-1
B11: 9A4 scFv CDR3 VH mutant clone 38B (scFv)
scFv: B2 scFv with A97G, Y104S, W105C
notes: Derived from p9A4ICAT7-1
B12: 9A4 scFv CDR3 VH mutant clone 24A (scFv)
scFv: B2 scFv with A97G, D103E
notes: Derived from p9A4ICAT7-1
B13: 9A4 scFv CDR3 VH mutant clone 8D (scFv)
scFv: B2 scFv with Y104N
notes: Derived from p9A4ICAT7-1
B14: 9A4 scFv CDR3 VH mutant clone 13G (scFv)
scFv: B2 scFv with A97G, Y104N
notes: Derived from p9A4ICAT7-1

Biological target: T1, biotinylated peptide 225 (SEQ ID NO: 64)
Test: told in words beside the Origen result

binding result | Binder
binds | B1

Biological target: T2, biotinylated peptide Bt-AEGPPGPQG (SEQ …)
Test: BIAcore, biotinylated peptide SEQ ID NO: 14 on streptavidin chip
Protocol: Positive wells in the ELISA were subjected to a second round of selection on the BIAcore™ system. Wells were sought that produced antibodies having slow off rates on the BIAcore™ system as determined using BIAevaluation™ version 2.1 software (Pharmacia Biosensor, Piscataway, N.J.). Streptavidin (Pierce Chemical) at 100 μg/ml was conjugated using the Pharmacia Amine Coupling Kit (Pharmacia Biosensor) to carboxylated dextran-coated biosensor chips (Pharmacia Biosensor) at a pH 4.0 using a flow rate of 5 μl/minute for 35 minutes. Typically, 2000 RU was added. Peptide (100 ng/ml) biotinylated on residue of 1 of SEQ ID NO: 14 as set forth in the Sequence Listing, was passed over the streptavidin chip at a flow rate of 100 μl/minute for 10 seconds. Candidate supernatants containing antibody were passed over the chip (2 μl/minute for 30 seconds) and the amount of added antibody noted. The buffer was changed to HBS (HEPES buffered saline, Pharmacia Biosensor), and the dissociation rate noted for the next 80 seconds. The chip was cleaned with 0.1 N HCl for 30 seconds between each run to remove residual antibody and to clear any nonspecific binding. The off-rates were determined using BIAevaluation™ kinetic analysis software version 2.1. Clones with the slowest off rates were selected for further analysis. These clones included 9A4, 11F2, and 3H10.
Binding to antigen was evaluated on the BlAcore™ system for both the p9A4lCAT7-1 and p9A4lF-5 scFv purified gene products as follows. A streptavidin chip was loaded with biotinylated peptide of SEQ ID NO: 14 as given in Example 1 above.

koff [s⁻¹] | Kd [nM] | Binder
0.0012 |  | B2
0.0176 | 120 | B3
 | 110 | B4

Biological target: T2, biotinylated peptide Bt-AEGPPGPQG (SEQ …)
Test: BIAcore, scFv over biotinylated peptide SEQ ID NO: 14 on streptavidin chip, dissociation 280 s
Protocol: Off-rates for the scFv constructs were measured by analysis of dissociation data obtained on the BlAcore™ system (Pharmacia Biosensor) with BlAevaluation™ version 2.1 software. To obtain the data on the BlAcore™ system, streptavidin surfaces on the BlAcore™ chips were prepared as described previously in Example 1. Biotinylated peptide (SEQ ID NO: 14) was bound to the prepared streptavidin surfaces to RU densities ranging from about 2–11 RU's/surface. The lower level of derivatization would help avoid getting erroneous off-rates that could be obtained if mass transport was an issue. Purified scFv's were injected over these surfaces to allow binding of the constructs for 60 seconds. PBS buffer alone was then substituted and the dissociation of scFv was allowed to proceed for an additional 280 sec. Off-rates were calculated from these dissociation data.

koff [s⁻¹] | Binder
0.003 | B2
0.0027 | B5
0.0025 | B6
0.0028 | B7
0.0035 | B8
0.014 | B9
0.0094 | B10
0.0026 | B11
0.0025 | B12
0.0104 | B13
0.0103 | B14
0.0048 | B4

Biological target: T3, biotinylated peptide of SEQ ID NO: 19
Test: ELISA-positive hybridoma supernatant, BIAcore over biotinylated peptide SEQ ID NO: 19 on streptavidin chip
Protocol: Positive wells were subjected to a second round of selection on the BlAcore™ system for those which had antibodies giving the slowest off-rates. Streptavidin (Pierce Chemical) at 100 µg/ml was conjugated using the Pharmacia Amine Coupling Kit (Pharmacia Biosensor) to carboxylated dextran coated biosensor chips (Pharmacia Biosensor) at pH 4.0 using a flow rate of 5 µl/minute for 35 minutes. Typically, 2000 RU was added. Peptide (100 ng/ml), biotinylated on residue 1 of SEQ ID NO: 19 as set forth in the Sequence Listing, was passed over the streptavidin chip at a flow rate of 100 µl/minute for 10 seconds. Supernatants containing antibody were passed over the chip (2 µl/minute for 30 seconds) and the amount of added antibody noted. The buffer was changed to HBS (Pharmacia Biosensor), and the dissociation rate noted for the next 80 seconds. The chip was cleaned with 0.1 N HCl for 30 seconds between each run to remove antibody and to get rid of any nonspecific binding. The off-rates were determined using the BlAevaluation™ software version 2.1.

binding result | Binder
binds | B1
